Experimental data taken from patent US20220340673A1 (HARBOUR BIOMED SUZHOU, published 2022).

Legend:
[1] = target: T1, cynomolgus monkey BCMA-Fc, Avitag (ACRO, Cat. BCA-C82F4) (cynomolgus monkey, UniProt A0A2K5UD97 1-53); assay: Biacore, antigen coupled to a CM5 chip, PR003178 injected at 6-0.1875 nM, 1:1 kinetic fit [E]
T1 construct: Bought reagent; amine-coupled to the CM5 chip; also called cynomolgus monkey BCMA recombinant protein; not shown: Fc and Avitag of the bought protein
Description: (§1) Human BCMA-Fc, Avitag recombinant protein (ACRO, Cat. BC7-H82F0), cynomolgus monkey BCMA-Fc, Avitag (ACRO, Cat. BCA-C82F4) were purchased from ACRO, human CD3e/g ECD-hFc recombinant protein (Lot.20190508002), cynomolgus monkey CD3e/g ECD-hFc recombinant protein and human (Lot.2018040001) were purchased from ChemPartner.
(§2) The flow rate was set as 10 μl/min and four antigens were coupled on four channels on two CMS: 1) the injection time was set as 300 s, and 50 mM of NHS and 200 mM of EDC were freshly mixed at 1:1 volume ratio and injected into four channels; 2) human BCMA-Fc, Avitag recombinant protein, cynomolgus monkey BCMA-FC, Avitag, human CD3e/g ECD-hFc recombinant protein and cynomolgus CD3e/g ECD-hFc recombinant protein were all diluted to 1 μg/ml with sodium acetate (Cat# BR-1003-50) (pH 4.5), and injected into channel 2, 3 and 4 of chip 1 and channel 2 of chip 2, respectively; 3) 1 M of ethanolamine (pH8.5) was injected for 300 s to block the remaining active carboxyl groups on the chips surface. After blockage, the instrument was continued to be equilibrated with 1 ×HBS- EP+buffer for two hours. The final coupling amounts of human BCMA-Fc, Avitag recombinant protein, cynomolgus monkey BCMA-Fc, Avitag, human CD3e/g ECD-hFc recombinant protein and cynomolgus monkey CD3e/g ECD-hFc recombinant protein were 120 RU, 70 RU, 200 RU and 290 RU, respectively.
(§3) A multi-cycle kinetic mode was set, and each cycle included the binding of PRO03178 as well as the regeneration of the chip. PRO03178 with two-fold gradient dilution was injected into four channels at a flow rate of 30 μl/min. A binding time of 180 s and a dissociation time of 400 s or 600s were set. Finally, 10 mM of glycine-hydrochloric acid (pH 1.5) (GE Life Sciences, Cat# BR-1003-54) was injected at the same flow rate for 60 s to regenerate the chip.

[2] = target: T2, human BCMA on cells (HEK293T/huBCMA; NCI-H929) (human, UniProt Q02223 1-184); assay: FACS on NCI-H929 cells
T2 construct: whole, on cells; also called human BCMA molecules on NCI-H929 cell line
T2 sequence (looked up): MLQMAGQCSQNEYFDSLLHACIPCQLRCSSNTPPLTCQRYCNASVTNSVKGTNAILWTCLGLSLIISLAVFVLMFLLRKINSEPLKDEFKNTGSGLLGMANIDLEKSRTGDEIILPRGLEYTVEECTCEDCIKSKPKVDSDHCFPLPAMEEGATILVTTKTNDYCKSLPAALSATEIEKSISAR

[3] = target: T2, human BCMA on cells (HEK293T/huBCMA; …); assay: FACS on HEK293T/huBCMA cells
From the text: To study the in vitro binding activity of the BCMA arm of the BCMA×CD3 bispecific antibody, HEK293T cell strain overexpressing human BCMA (HEK293T/huBCMA) and HEK293T cell strain overexpressing cynomolgus monkey BCMA (HEK293T/cynoBCMA) were used for antibody binding experiments at cellular level. Briefly, HEK293T/huBCMA cells and HEK293T/cynoBCMA cells were digested and resuspended with DMEM complete medium. The cell density of the two was adjusted to 1×10⁶ cells/mL, respectively. Cells were inoculated at 100 μL cells/well in a 96 well V-bottom plate (Corning, Cat#: 3894), followed by the addition of test antibodies at 100 μL/well, which is gradient diluted at 3 folds of the concentration with 2 folds of the final concentration. Cells were incubated at 4° C. for 1 hour in the dark. Afterwards, the cells were washed twice with 100 μL/well of pre-cooled PBS, centrifuged at 500 g for 5 min at 4° C., and followed by discarding the supernatant. 100 μL/well of fluorescent secondary antibody (Alexa Fluor 488-conjugated AffiniPure Goat Anti-Human IgG, Fcγ Fragment Specific, Jackson, Cat#: 109-545-06, 1:500 dilution) was added and incubated for 30 min at 4° C. in the dark. […] Finally, the cells were resuspended with 200 μL/well of pre-cooled PBS, and the fluorescence luminescence signal values were read by BD FACS CANTOII. […]

[4] = target: T3, human CD3e/g ECD-hFc recombinant protein (human, UniProt P07766 23-126; P09693 23-116); assay: Biacore, antigen coupled to a CM5 chip, PR003178 injected at 12-0.375 nM, 1:1 kinetic fit [E]
T3 construct: extracellular domain; Bought from ChemPartner; not shown: human Fc
Description: as §1, §2, §3

[5] = target: T4, human BCMA-Fc, Avitag recombinant protein (ACRO, Cat. BC7-H82F0) (human, UniProt Q02223 1-54); assay: as above
T4 construct: extracellular domain; Bought reagent; amine-coupled to the CM5 chip in the Biacore assay; also called recombinant human BCMA-ECD-Fc; human BCMA recombinant protein; not shown: Fc and Avitag of the bought protein
T4 sequence (looked up): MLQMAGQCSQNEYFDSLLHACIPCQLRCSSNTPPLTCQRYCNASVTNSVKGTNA
Description: as §1, §2, §3

T1 sequence (A0A2K5UD97 entry or part of it): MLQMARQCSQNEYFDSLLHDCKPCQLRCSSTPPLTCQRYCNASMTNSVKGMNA
T3 sequence (P07766 23-126, chain 1 of 2): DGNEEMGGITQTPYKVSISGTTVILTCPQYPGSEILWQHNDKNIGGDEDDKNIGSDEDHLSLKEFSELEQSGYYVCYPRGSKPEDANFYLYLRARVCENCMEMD
T3 sequence (P09693 23-116, chain 2 of 2): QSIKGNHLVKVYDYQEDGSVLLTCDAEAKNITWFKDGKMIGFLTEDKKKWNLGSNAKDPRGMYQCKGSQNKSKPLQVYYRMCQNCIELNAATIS

B1: BCMA x CD3 bispecific antibody PR003178 (bispecific antibody, human IgG1, lambda, L234A L235A)
heavy 1: not shown
light: QAVVTQEPSLTVSPGGTVTLTCRSSTGAVTTSNYANWVQQKPGQAPRGLIGGTNKRAPWTPARFSGSLLGDKAALTLLGAQPEDEAEYFCALWYSNLWVFGGGTKLTVLGQPKAAPSVTLFPPSSEELQANKATLVCLISDFYPGAVTVAWKADSSPVKAGVETTTPSKQSNNKYAASSYLSLTPEQWKSHRSYSCQVTHEGSTVEKTVAPTECS
heavy 2: EVQLVETGGGLIQPGGSLRLSCAASGFTVSDNYMTWVRQAPGKGLEWVSVIFSGGNTYYADSVKGRFTISRDNAKNTLYLQMNSLRAEDTALYYCARRNYDDTRGTDVFDIWGQGTMVTVSSGGGGSGGGGSGGGGSEVQLVETGGGLIQPGGSLRLSCAASGFTVSDNYMTWVRQAPGKGLEWVSVIFSGGNTYYADSVKGRFTISRDNAKNTLYLQMNSLRAEDTALYYCARRNYDDTRGTDVFDIWGQGTMVTVSSASEPKSSDKTHTCPPCPAPEAAGGPSVFLFPPKPKDTLMISRTPEVTCVVVDVSHEDPEVKFNWYVDGVEVHNAKTKPREEQYNSTYRVVSVLTVLHQDWLNGKEYKCKVSNKALPAPIEKTISKAKGQPREPQVCTLPPSREEMTKNQVSLSCAVKGFYPSDIAVEWESNGQPENNYKTTPPVLDSDGSFFLVSKLTVDKSRWQQGNVFSCSVMHEALHNHYTQKSLSLSPGK
notes: Three chains: HC1 (anti-CD3 heavy, knob, LALA), LC (anti-CD3 lambda light), HC2 (two tandem anti-BCMA VH of PR001046 joined by (G4S)3, then Fc hole, LALA); also called PRO03178
**Q.** B1 was tested. Which Kd [1] did it give?
**A.** Its Kd is 0.147 nM.

**Q.** And the koff [1]?
**A.** The koff was 0.000285 s⁻¹.

**Q.** And the kon [1]?
**A.** Its kon is 1.94e+06 M⁻¹ s⁻¹.

**Q.** And the “fold lower EC50 than positive control 2” value [2]?
**A.** Its value is roughly 8 fold.

**Q.** What about the “fold lower EC50 than positive control 2” value [3] of the same binder?
**A.** Its value is roughly 5 fold.

**Q.** What about the koff [4] of the same binder?
**A.** Its koff is 0.0149 s⁻¹.

**Q.** And the kon [4]?
**A.** The kon was 588000 M⁻¹ s⁻¹.

**Q.** And the koff [5]?
**A.** Its koff is 0.000167 s⁻¹.

**Q.** And the kon [5]?
**A.** The kon was 1.76e+06 M⁻¹ s⁻¹.
